Consider 109 sequences from the supplement of paper PMC9942255.

This data set deals with Bacillus subtilis DB104 (SP-AmyQ fusion secretion). The data set is described as follows: AmyQ secretion efficiency, weighted average sort bin (1 = best secretion, 10 = worst) (bin number (weighted average, 1-10)); higher = lower secretion efficiency. The method, boiled down:
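Secretion score gives the read-frequency-weighted average bin number, normalised to beads per bin, with low-abundance sequences left out. A B. subtilis DB104 library expressing mature AmyQ fused to designed signal peptides, integrated at amyE, was encapsulated with fluorescein-starch at about 0.3 cells per ~65 nL alginate bead. Beads were grown about 13 h at room temperature, stained with nile red, and the occupied ones were sorted by large-particle flow cytometry into 10 equally populated bins by green/red fluorescence ratio before the amplicons from each bin were Illumina-sequenced.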

For the sequence MAAQTDYKKQVVGILLSLAFVLFVFSCSERHE, the AmyQ secretion efficiency came out at 4.02.
MAAQTDYKKQVVGILLSLAFVLFVFSPSERHE registered an AmyQ secretion efficiency of 5.34.
The result for MAAQTDYKKQVVGILLSLAFVLFVFSRSERHE reads 4.39; that for MAAQTDYKKQVVGILLSLAFVLRRRKFSERHE, 7.65; that for MAIIIAIIAANVRNASPG, 7.68.
For the sequence MAIIIAIIAAVIVIAALINVRNASPG, the AmyQ secretion efficiency came to 8.6.
In turn, MAIIIAIIAAVIVIAALITFAVRNASPG yielded an AmyQ secretion efficiency of 6.55.
As for MAIIIAIIAAVIVIAALITFEDDEDDDRNASPG, the figure is 6.7.
As for MAIIIAIIAAVIVIAALITFEEDERNASPG, the figure is 5.02.
The sequence MAIIIAIIAAVIVIAALITFEVRNASPG came in with an AmyQ secretion efficiency of 5.68.
Sequence MAIIIAIIAAVIVIAALITFIVIVIRNASPG yielded an AmyQ secretion efficiency of 6.93.
As for MAIIIAIIAAVIVIAALITFKKRRKRNASPG, the figure is 8.46; as for MAIIIAIIAAVIVIAALITFNRNASPG, 6.99; as for MAIIIAIIAAVIVIAALITFNVANASPG, 5.63.
As for MAIIIAIIAAVIVIAALITFNVCNASPG, the figure is 7.28; as for MAIIIAIIAAVIVIAALITFNVENASPG, 8.68.
For MAIIIAIIAAVIVIAALITFNVFNASPG, the AmyQ secretion efficiency amounted to 7.58.
With MAIIIAIIAAVIVIAALITFNVGGSPVVSTSTARNASPG, the AmyQ secretion efficiency turned out to be 3.35.
The result for MAIIIAIIAAVIVIAALITFNVGNASPG reads 5.7; that for MAIIIAIIAAVIVIAALITFNVGTPRNASPG, 8.5; that for MAIIIAIIAAVIVIAALITFNVHNASPG, 7.6.
The result for MAIIIAIIAAVIVIAALITFNVINASPG reads 9.99; that for MAIIIAIIAAVIVIAALITFNVLNASPG, 6.68.
In turn, MAIIIAIIAAVIVIAALITFNVMNASPG had an AmyQ secretion efficiency of 6.23.
As for MAIIIAIIAAVIVIAALITFNVNNASPG, the figure is 7.54; as for MAIIIAIIAAVIVIAALITFNVPNASPG, 6.07.
As for MAIIIAIIAAVIVIAALITFNVQNASPG, the figure is 7.71.
The result for MAIIIAIIAAVIVIAALITFNVRNADDD reads 7.51; that for MAIIIAIIAAVIVIAALITFNVRNAKKR, 7.34.
MAIIIAIIAAVIVIAALITFNVRNASKR: the AmyQ secretion efficiency came out at 7.12.
As to MAIIIAIIAAVIVIAALITFNVRNASPE, the AmyQ secretion efficiency was 6.75.
As for MAIIIAIIAAVIVIAALITFNVRNCSPG, the figure is 5.87; as for MAIIIAIIAAVIVIAALITFNVRNDSPG, 6.52; as for MAIIIAIIAAVIVIAALITFNVRNESPG, 7.39.
MAIIIAIIAAVIVIAALITFNVRNFSPG returned an AmyQ secretion efficiency of 6.5.
Regarding MAIIIAIIAAVIVIAALITFNVRNGSPG, the AmyQ secretion efficiency is 7.66.
As for MAIIIAIIAAVIVIAALITFNVRNHSPG, the figure is 6.69; as for MAIIIAIIAAVIVIAALITFNVRNISPG, 7.65.
The result for MAIIIAIIAAVIVIAALITFNVRNKSPG reads 6.36; that for MAIIIAIIAAVIVIAALITFNVRNLSPG, 7.04; that for MAIIIAIIAAVIVIAALITFNVRNMSPG, 7.67.
The sequence MAIIIAIIAAVIVIAALITFNVRNNSPG had an AmyQ secretion efficiency of 6.02.
As for MAIIIAIIAAVIVIAALITFNVRNPSPG, the figure is 7.75.
Sequence MAIIIAIIAAVIVIAALITFNVRNQSPG had an AmyQ secretion efficiency of 9.31.
As for MAIIIAIIAAVIVIAALITFNVRNRSPG, the figure is 7.6.
The result for MAIIIAIIAAVIVIAALITFNVRNSSPG reads 8.62; that for MAIIIAIIAAVIVIAALITFNVRNVSPG, 8.03; that for MAIIIAIIAAVIVIAALITFNVRNWSPG, 8.18.
On to MAIIIAIIAAVIVIAALITFNVRNYSPG, for which the AmyQ secretion efficiency came out at 7.13.
As for MAIIIAIIAAVIVIAALITFNVSNASPG, the figure is 7.09; as for MAIIIAIIAAVIVIAALITFNVTNASPG, 7.21; as for MAIIIAIIAAVIVIAALITFNVVNASPG, 8.99.
The result for MAIIIAIIAAVIVIAALITFNVWNASPG reads 7.05.
The result for MAIIIAIIAAVIVIAALITFRRRNASPG reads 8.26.
The sequence MAIIIAIIAAVIVIAALITFTSNVRNASPG came in with an AmyQ secretion efficiency of 7.45.
Regarding MARKRKIIAAVIVIAALITFNVRNASPG, the AmyQ secretion efficiency came out at 6.43.
As for MARRRRRKAAVIVIAALITFNVRNASPG, the figure is 6.9; as for MFFKKTVVSALSISALALSVSGVASAHEI, 3.
The result for MFFTIVAGLAVSAVVGSSMAAAPAEAKTI reads 2.75; that for MFFVLMAFIICLSLILSVLAAPPSGAKAESV, 5.38; that for MFGKLLLATSALTFSLSLVLPLDGHAKAQEV, 3.02.
For MFGMSTISLLIIFLLASAVLAKPIEAHTV, the AmyQ secretion efficiency is 2.54.
The result for MFGTLFRVCFLAALIMAFTLPNSVYAQKP reads 2.52.
As for MFGWMAGLFLAAAVLLCLMVPQQIQGASS, the figure is 4.3; as for MFKFKKNFLFLVGLSAALMSISLFSATASAAST, 1.42; as for MFKFKKNFLVGLSAALMSIEDEEDDASAAST, 6.33.
The result for MFKFKKNFLVGLSAALMSIKKKKRRASAAST reads 7.19; that for MFKFKKNFLVGLSAALMSIKQFSATASAAST, 5.73; that for MFKFKKNFLVGLSAALMSISLFSATASAADD, 3.08.
For MFKFKKNFRKKRSAALMSISLFSATASAAST, the AmyQ secretion efficiency was 4.73.
Sequence MFKFKKNFRRRRRRALMSISLFSATASAAST came in with an AmyQ secretion efficiency of 6.72.
The result for MFKFKKNGKSRRTAALMSISLFSATASAAST reads 4.18; that for MFKFKKNTRGGLSAALMSISLFSATASAAST, 3.49.
As for MFKIMSAFVGMVLLTIFCFSPQASAAYD, the figure is 3.33.
The result for MFKKGYSSYRKRTFSLSLVLPLDGHAKAQEV reads 7.96; that for MFKKHMNNFTISLLIIFLLASAVLAKPIEAHTV, 3.28; that for MFKKHQRRQRIIFLLASAVLAKPIEAHTV, 6.33.
In turn, MFKKHSRSLLIIFLLASAVLAKPIEAHTV registered an AmyQ secretion efficiency of 4.1.
As for MFKKHSTISLLIIFLLASAVLAKPIEAHTV, the figure is 1.86; as for MFKKHTISLLIIFLLAATFFSFTSLISAVLAKPIEAHTV, 4.38; as for MFKKHTISLLIIFLLAEAVLAEPIEAHTV, 2.51.
On to MFKKHTISLLIIFLLALTSAVLAKPIEAHTV, for which the AmyQ secretion efficiency was 2.73.
Sequence MFKKHTISLLIIFLLASAVLAKPAEAHTV displayed an AmyQ secretion efficiency of 2.44.
As for MFKKHTISLLIIFLLASAVLAKPCEAHTV, the figure is 2.62.
As for MFKKHTISLLIIFLLASAVLAKPEEAHTV, the figure is 4.88.
The result for MFKKHTISLLIIFLLASAVLAKPGEAHTV reads 2.82; that for MFKKHTISLLIIFLLASAVLAKPIEADEE, 3.49; that for MFKKHTISLLIIFLLASAVLAKPIEAHDD, 3.1.
Regarding MFKKHTISLLIIFLLASAVLAKPIEAHTD, the AmyQ secretion efficiency amounted to 1.8.
As for MFKKHTISLLIIFLLASAVLAKPIEAHTK, the AmyQ secretion efficiency amounted to 2.17.
In the case of MFKKHTISLLIIFLLASAVLAKPIEARKK, the AmyQ secretion efficiency was 2.26.
The sequence MFKKHTISLLIIFLLASAVLAKPIECHTV gave an AmyQ secretion efficiency of 5.04.
The result for MFKKHTISLLIIFLLASAVLAKPIEEHTV reads 5.81; that for MFKKHTISLLIIFLLASAVLAKPIEGHTV, 3.78; that for MFKKHTISLLIIFLLASAVLAKPIEPHTV, 7.19.
The result for MFKKHTISLLIIFLLASAVLAKPIERHTV reads 5.58; that for MFKKHTISLLIIFLLASAVLAKPIEYHTV, 5.13.
As for MFKKHTISLLIIFLLASAVLAKPLEAHTV, the figure is 2.46; as for MFKKHTISLLIIFLLASAVLAKPMEAHTV, 2.67.
In turn, MFKKHTISLLIIFLLASAVLAKPPPTTATIEAHTV returned an AmyQ secretion efficiency of 7.2.
As for MFKKHTISLLIIFLLASAVLAKPSEAHTV, the figure is 2.57; as for MFKKHTISLLIIFLLASAVLAKPTEAHTV, 2.68; as for MFKKHTKRKRRKFLLASAVLAKPIEAHTV, 7.89.
On to MFKKHTRKRKIIFLLASAVLAKPIEAHTV, for which the AmyQ secretion efficiency turned out to be 7.04.
With MFKKLKRRKSALTFSLSLVLPLDGHAKAQEV, the AmyQ secretion efficiency was 6.09.
The sequence MFKKLLLATSALTFSLSLVLDAKAQEV had an AmyQ secretion efficiency of 2.17.
As for MFKKLLLATSALTFSLSLVLEEDDHAKAQEV, the figure is 3.32; as for MFKKLLLATSALTFSLSLVLKLRGHAKAQEV, 6.07; as for MFKKLLLATSALTFSLSLVLPLDGHAKAQED, 2.98.
